Assays:
CD133 (prominin) (human) [1] = target: T1, CD133 (prominin) (human) (UniProt O43490); assay: ELISA on plasma membrane fraction of Caco-2 cells; relative equilibrium constant
T1 sequence (glycosylated (the AC133 epitope is known to be glycosylated), looked up): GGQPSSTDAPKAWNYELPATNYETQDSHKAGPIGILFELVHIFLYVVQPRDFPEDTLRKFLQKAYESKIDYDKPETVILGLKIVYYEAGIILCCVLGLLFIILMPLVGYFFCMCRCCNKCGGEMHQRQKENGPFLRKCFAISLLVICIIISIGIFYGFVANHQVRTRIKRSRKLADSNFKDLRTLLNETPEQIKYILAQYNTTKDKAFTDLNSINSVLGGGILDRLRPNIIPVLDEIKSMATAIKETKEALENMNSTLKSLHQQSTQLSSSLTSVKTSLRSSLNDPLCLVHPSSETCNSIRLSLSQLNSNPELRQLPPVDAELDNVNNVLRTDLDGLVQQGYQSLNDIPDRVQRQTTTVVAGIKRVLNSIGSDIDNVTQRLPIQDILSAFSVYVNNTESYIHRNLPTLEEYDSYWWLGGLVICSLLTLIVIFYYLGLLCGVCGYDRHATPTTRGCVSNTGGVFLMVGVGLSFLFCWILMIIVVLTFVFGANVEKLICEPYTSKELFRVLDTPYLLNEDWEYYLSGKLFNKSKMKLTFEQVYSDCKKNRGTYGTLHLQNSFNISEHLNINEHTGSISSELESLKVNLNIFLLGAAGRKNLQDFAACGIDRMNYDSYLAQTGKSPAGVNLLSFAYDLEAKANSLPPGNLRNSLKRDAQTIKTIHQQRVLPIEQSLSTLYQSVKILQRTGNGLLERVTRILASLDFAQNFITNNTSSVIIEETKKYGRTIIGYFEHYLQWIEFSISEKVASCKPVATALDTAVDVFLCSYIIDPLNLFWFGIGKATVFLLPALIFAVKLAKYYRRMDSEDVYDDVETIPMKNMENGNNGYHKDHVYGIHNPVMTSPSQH

CD133 (prominin) (human) [2] = target: T1, CD133 (prominin) (human); assay: ELISA on membrane fraction from Caco-2 cells
CD133 (prominin) (human) [3] = target: T1, CD133 (prominin) (human); assay: ELISA on membrane fraction of Caco-2 cells

With scFv-AC133 the Kd (CD133 (prominin) (human) [1]) was 155 nM, the fold lower affinity than the monoclonal antibody from which the scFv was derived (CD133 (prominin) (human) [2]) was 3 fold and the fold lower relative binding affinity than anti-CD133 monoclonal antibody (CD133 (prominin) (human) [3]) was 2 fold.

B1: AC133 mouse monoclonal antibody purified from hybridoma (antibody, from another filing, V domains shown)
VH: QVQLQQSGAELVRPGASVKLSCKASGYTFSDFEMHWVKQTPVHGLEWIGDIDPGTGDTAYNLKFKGKATLTTDKSSSTAYMELRSLTSEDSAVYYCTLGAFVYWGQGTLVTVSA
VL: DVVVTQTPLSLPVSFGDQVSISCRSSQSLANSYGNTYLSWYLHKPGQSPQLLIYGISNRFSGVPDRFSGSGSGTDFTLKISTIKPEDLGMYYCLQGTHQPYTFGGGTKLEIKR
B1 was tested, and the Kd (CD133 (prominin) (human) [1]) was 83 nM.
